The source of these data is publication PMC2783839.

In the data set the target is T1, NEUROG2 (cNEUROG2) (Gallus gallus (chick)?, UniProt Q9YH82 1-213).
T1 sequence: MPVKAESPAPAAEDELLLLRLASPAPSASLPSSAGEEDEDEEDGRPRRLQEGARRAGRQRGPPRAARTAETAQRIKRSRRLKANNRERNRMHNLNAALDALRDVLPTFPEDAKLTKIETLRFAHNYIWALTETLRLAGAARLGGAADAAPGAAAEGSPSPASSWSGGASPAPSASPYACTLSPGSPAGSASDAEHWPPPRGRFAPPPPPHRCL
Description: EMSA. For orientation: A gel shift assay detects complexes by their altered migration in electrophoresis.

B1: (Ebox)3 (dsDNA)
DNA 1: GATCCAGGCAGGTGGCAGGCAGGTGGCAGGCAGGTGGCAGATC
DNA 2: GATCTGCCACCTGCCTGCCACCTGCCTGCCACCTGCCTGGATC
As to B1, the binding result is “no binding”.
